Patent US20110189190A1 (Eli Lilly, published 2011)

How the values were obtained:
[1] = target: T1, human hepcidin-25 (human); test: SPR
T1 construct: also called mature human hepcidin; human hepcidin-25 control peptide
T1 peptide: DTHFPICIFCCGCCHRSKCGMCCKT

[2] = target: T1, human hepcidin-25; test: SPR, Mab captured by anti-mouse IgG1 Fc
Procedure: Briefly, on a Biacore® T100, goat anti-mouse IgG1 Fc polyclonal antibody was immobilized onto flow cell 1 to 4 of CMS chip at 5000-15000 response units (Ru). Mab 5E8 was captured on flow cell 2, Mab 4C11 was captured on flow cell 3, and Mab 3A9 was captured on flow cell 4. Flow cell 1 was used as a reference flow cell. All flow cells were then injected with human hepcidin-25.

[3] = target: T2, rat hepcidin-25 (rat); test: SPR, 25 C
T2 peptide: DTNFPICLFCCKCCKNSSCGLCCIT

[4] = target: T3, mouse hepcidin-25 (mouse); test: SPR, 25 C
T3 peptide: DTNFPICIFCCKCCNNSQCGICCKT

[5] = target: T4, human hepcidin-22 (human); test: SPR, 25 C
T4 construct: Endogenous serum form (MW 2436 Da) in the MALDI-TOF experiments
T4 peptide: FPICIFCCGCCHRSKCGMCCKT

[6] = target: T5, human hepcidin-20 (human); test: SPR, 25 C, Mab captured
T5 construct: Endogenous serum form (MW 2192 Da) in the MALDI-TOF experiments
T5 peptide: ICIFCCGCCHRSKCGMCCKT

[7] = target: T1, human hepcidin-25; test: immunoprecipitation from human serum on plate-coated antibody, acid elution, MALDI-TOF mass spectrometry (linear mode)
Source text: (§1) Signal 1 has a mass which is consistent with the expected mass of intact human hepcidin-25 (approximate molecular weight (MW) of 2790 Daltons (Da)). Signal 2 has a mass which is consistent with the expected mass of intact human hepcidin-20 (MW of 2192 Da). […] The mass spectrum was generated on a MALDI-TOF mass spectrometer utilizing a positive ion, linear mode method with a-cyano-4-hydroxycinnamic acid (peptide matrix) as sample matrix essentially as described in Example 6 below.
(§2) Anti-human hepcidin Mabs or Fabs are coated onto separate wells of a 96-well standard ELISA plate in carbonate-bicarbonate (pH 9.4) buffer for 1 hour at room temperature at a concentration of 2 mg/L. The wells are then aspirated and washed 3 times with TBST. Human serum samples containing a known amount of hepcidin-25 (diluted in assay buffer) is added at 100 μl/well for one hour at room temperature. The wells are aspirated and washed 3 times with TBST. Captured hepcidin polypeptides are eluted by adding 40 μL/well of 0.1% formic acid for 5 minutes at room temperature. […] The sample is dried and analyzed with a 4700 TOF-TOF Mass Spectrometer (Applied Biosystems) operated in the linear mode.

[8] = target: T5, human hepcidin-20; test: as above
Source text: as §1, §2

[9] = target: T1, human hepcidin-25; test: SPR, Mab immobilized on CM4 chip
Procedure: The flow cells were then injected with human hepcidin-25. Next, the flow cells were injected with Mab 5E8.

[10] = target: T4, human hepcidin-22; test: MSD sandwich immunoassay: Mab OH4 capture, ruthenium-labelled Mab 3.23 detection; no sandwich signal (assigned to the capture antibody OH4)
Procedure: (§3) Streptavidin-coated and blocked wells of an ELISA plate were incubated for 1 hour with biotinylated Mab OH4 at a concentration of 2 mg/L. Afterward, wells were aspirated and washed three times with TBST (Tris buffered saline containing 10 mmol/L Tris pH 7.40, 150 mmol/L NaCl with 1 mL Tween 20/L). Next, 100 μL of hepcidin standards (varying concentrations of synthesized hepcidin-25 protein in assay buffer consisting of 50 mmol/L HEPES, pH 7.40, 150 mmol/L NaCl, 10 mL/L Triton X-100, 5 mmol/L EDTA, and 5 mmol/L EGTA) were added to the wells to generate a calibration curve. At the same time, serum samples were diluted 1:20 in assay buffer and added to their respective wells, and the ELISA plate was allowed to incubate for 1 hour at room temperature. […] Following aspiration, wells were washed three times with TBST, and the ELISA plate was developed using a MSD reader, which passed a voltage across the wells and recorded ruthenium electrochemiluminescence from each well. MSD software and SigmaPlot version 8.0 were used for fitting of the calibration curves for the ELISA.
(§4) Synthesized hepcidin-25 protein was prepared at a concentration of 10 μg/L and serially diluted to create a standard curve.

[11] = target: T5, human hepcidin-20; test: as above
Procedure: as §3, §4

[12] = target: T1, human hepcidin-25; test: SPR, 25 C, Mab captured, hepcidin-25 injected
Procedure: A SPR biosensor such as the BlAcore® T100 may be used to measure binding kinetics and affinity of antibodies such as the antibodies disclosed herein. The BIAcore® system utilizes the optical properties of SPR to detect alteration in protein concentration of interacting molecules within a dextran biosensor matrix. Except as noted, all reagents and materials are purchased from BIAcore® AB (Upsala, Sweden). All measurements are performed at 25° C. Samples are dissolved in HBS-EP buffer (150 mM sodium chloride, 3 mM EDTA, 0.05% (w/v) surfactant P-20, and 10 mM HEPES, pH 7.4). To capture Fabs with human kappa, goat-anti-human kappa is immobilized on flow cells 1 to 4 of a CMS sensor chip at a level of 5000-10000 response units (Rus) using an amine coupling kit. To capture Mabs with mouse IgG1, goat-anti-mouse Fc gamma is immobilized on flow cells 1 to 4 of a CMS sensor chip at a level of 5000-10000 Rus using an amine coupling kit. […] Fabs prepared from E. coli periplasma and Mabs prepared from mammalian cell culture are evaluated using multiple analytical cycles. […] The measurements are obtained at 25° C. and the association and dissociation rates for each cycle are evaluated using a “1:1 with mass transfer” binding model in the BIAevaluation software.

[13] = target: T1, human hepcidin-25; test: SPR, 25 C
[14] = target: T2, rat hepcidin-25; test: SPR, 25 C, Mab captured
[15] = target: T3, mouse hepcidin-25; test: SPR, 25 C, Mab captured
[16] = target: T1, human hepcidin-25; test: immunoprecipitation from human serum on plate-coated antibody, acid elution, MALDI-TOF mass spectrometry (linear mode)
Source text: FIG. 3 depicts a MALDI-TOF mass spectrum of the forms of human hepcidin immunoprecipitated from human sera with the anti-hepcidin-25 selective Mab 5E8. Signal 1 has a mass which is consistent with the expected mass of intact human hepcidin-25 (2790 Da). […] The mass spectrum was generated on a MALDI-TOF mass spectrometer utilizing a positive ion, linear mode method with a-cyano-4-hydroxycinnamic acid (peptide matrix) as sample matrix essentially as described in Example 6 below.
as §2, with “TBST.” for “TBST. Captured hepcidin polypeptides are eluted by adding 40 μL/well of 0.1% formic acid for 5 minutes at room temperature.”
(§5) Similar experiments were performed using MALDI-TOF spectrometry to determine which hepcidin species in human serum are bound by Mab 5E8. These experiments determined that Mab 5E8 bound only hepcidin-25 in human serum (FIGS. 3 and 4). […]

[17] = target: T5, human hepcidin-20; test: immunoprecipitation from human serum, MALDI-TOF mass spectrometry
Procedure: Anti-human hepcidin Mabs or Fabs are coated onto separate wells of a 96-well standard ELISA plate in carbonate-bicarbonate (pH 9.4) buffer for 1 hour at room temperature at a concentration of 2 mg/L. The wells are then aspirated and washed 3 times with TBST. Human serum samples containing a known amount of hepcidin-25 (diluted in assay buffer) is added at 100 μl/well for one hour at room temperature. The wells are aspirated and washed 3 times with TBST. Captured hepcidin polypeptides are eluted by adding 40 μL/well of 0.1% formic acid for 5 minutes at room temperature. The eluted samples are collected and concentrated with a C4 ZipTip™ (Millipore, Billerica, Mass.), a 10 μL pipette tip with a bed of chromatography media for purifying and concentrating femtomoles to picomoles of protein or peptides, ideally ranging from 25,000 MW to 100,000 MW. […] The sample is dried and analyzed with a 4700 TOF-TOF Mass Spectrometer (Applied Biosystems) operated in the linear mode.
as §5

B1: mouse monoclonal antibody 3A9 (antibody, mouse IgG1, kappa, V domains shown)
VH: EVKLVESGPGILQPSQTLSLTCSFSGFSLNSYGFGIGWIRQPSGKGLEWLTHIWWNGNKYYNTTLKSRLTISKDTSNNQVFLKIASLDTADTATYYCALIHYYGNSYGFAYWGQGTLVTVSA
VL: DIQMNQSPALMSASPGEKVTMTCSASSSVSSMYWYQQKPRSSPKPWIYLTSNLASGVPPRFSGSGSGTSYSLTISNMEAEDAATYYCQQWSSYPPTFGGGTKLEIKR
notes: also called Mab 3A9
**Q.** Does B1 bind [1]?
**A.** Result: binds

B2: mouse monoclonal antibody 4C11 (antibody, mouse IgG1, kappa, V domains shown)
VH: QVQLKQSGPGILQPSQTLSLTCSFSGFSLSTYGIGVGWIRQPAGKGLEWLAHIWWNDNKSYNTALKSRLTISKDTSNNQVFLKIASVDTTHTATYYCVVIGYYGSTSGFAYWGQGTLVTVSA
VL: QILLTQSPALMSASPGEKVTMTCSASSSVSYMYWYQQKPRSSPKPWIYLTSNLASGVPARFSGSGSGTSYSLTISSMEAEDAATYYCQQWSSNPPTFGGGTKLEIKR
notes: also called Mab 4C11
**Q.** Does B2 bind [2]?
**A.** Result: binds

**Q.** Does B2 bind [3]?
**A.** Result: binds

**Q.** Does B2 bind [4]?
**A.** Result: binds

**Q.** What about the Kd [5] of the same binder?
**A.** The Kd was about 0.209 µM.

**Q.** Does B2 bind [6]?
**A.** Result: no binding

B3: Anti-hepcidin Mab 3.23 (antibody, human IgG4 S228P, kappa, V domains shown)
VH: QVQLVQSGAEVKKPGSSVKVSCKASGYTFLIYPISWVRQAPGQGLEWMGNFHPYLGVTNYVEKFKGRVTITADKSTSTAYMELSSLRSEDTAVYYCARGGTGSFDYWGQGTTVTVSS
VL: DIQMTQSPSSLSASVGDRVTITCSASSRVSSTYLFWYQQKPGKAPKLLIYRTSPLASGVPSRFSGSGSGTDFTLTISSLQPEDFATYYCQQWSGYPFVFGGGTKVEIKR
**Q.** Does B3 bind [7]?
**A.** Result: binds

**Q.** Does B3 bind [8]?
**A.** Result: binds

B4: Anti-hepcidin Mab 3.12 (antibody, human IgG4 S228P, kappa, V domains shown)
VH: QVQLVQSGAEVKKPGSSVKVSCKASGYTFLIYPISWVRQAPGQGLEWMGNFHPYLGVTNYLEKFKGRVTITADKSTSTAYMELSSLRSEDTAVYYCARGGTGSFDYWGQGTTVTVSS
VL: DIQMTQSPSSLSASVGDRVTITCSASSRVSSTYLFWYQQKPGKAPKLLIYRTSTLTSGVPSRFSGSGSGTDFTLTISSLQPEDFATYYCQQWSGYPFVFGGGTKVEIKR
**Q.** Does B4 bind [9]?
**A.** Result: binds

B5: mouse monoclonal antibody OH4 (antibody, mouse IgG1, kappa, V domains shown)
VH: EVKLVESGGGLVKPGGSLKISCAASGFAFSSYDMSWVRQTPEKRLEWVATIISGGTYTYYPDSVKGRFTISRDNARNTLNLQMSSLRAEDTALYYCADDGYIHWGQGTLVTVSA
VL: DIVMTQIPLTLSVTIGQPASISCKSSQSLLYPNGKTYLTWLLQRPGQSPKRLIYLVSKLDPGVPDRFTGSGSGADFTLKISRVEAEDLGIYYCIQGSHFPWTFGGGTKLELKR
notes: also called Mab OH4
**Q.** Does B5 bind [10]?
**A.** Result: no binding (tested: 10 ug/L)

**Q.** Does B5 bind [11]?
**A.** Result: no binding (tested: 10 ug/L)

**Q.** What about the Kd [12] of the same binder?
**A.** Its Kd is about 0.0012 µM.

B6: mouse monoclonal antibody OB3 (antibody, mouse IgG1, kappa, V domains shown)
VH: EVKLVESGGGLVKPGGSLKISCAASGFAFSSYDMSWVRQTPEKRLEWVATIISGGTYTYYPDSVKGRFTISRDNARNTLNLQMSSLRAEDTALYYCADDGYIHWGQGTLVTVSA
VL: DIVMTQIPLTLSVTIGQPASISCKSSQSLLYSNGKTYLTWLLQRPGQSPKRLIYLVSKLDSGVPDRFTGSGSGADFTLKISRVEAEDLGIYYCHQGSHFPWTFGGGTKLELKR
**Q.** Does B6 bind [13]?
**A.** Result: binds

B7: mouse monoclonal antibody OE1 (antibody, mouse IgG1, kappa, V domains shown)
VH: EVKLVESGGGLVKPGGSLKISCAASGFAFSSYDMSWVRQTPEKRLEWVATIISGGTYTYYPDSVKGRFTISRDNARNTLNLQMSSLRAEDTALYYCADDGYIHWGQGTLVTVSA
VL: DIVMTQIPLTLSVTIGQPASISCKSSQSLLYPNGKTYLTWLLQRPGQSPKRLIYLVSKLDPGVPDRFTGSGSGADFTLKISRVEAEDLGIYYCFQGSHFPWVFGGGTKLELKR
notes: also called 0E1
**Q.** Does B7 bind [13]?
**A.** Result: binds

B8: mouse monoclonal antibody 5E8 (antibody, mouse IgG1, kappa, V domains shown)
VH: EVKLVESGGGLVKPGGSLKISCAASGFAFSSYDMSWVRQTPEKRLEWVATIISGGTYTYYPDSVKGRFTISRDNARNTLNLQMSSLRAEDTALYYCADDGYIHWGQGTLVTVSA
VL: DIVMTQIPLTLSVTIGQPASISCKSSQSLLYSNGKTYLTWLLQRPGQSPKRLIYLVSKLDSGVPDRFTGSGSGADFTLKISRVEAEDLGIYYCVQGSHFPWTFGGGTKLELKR
notes: also called Mab 5E8
**Q.** Does B8 bind [14]?
**A.** Result: no binding

**Q.** Does B8 bind [15]?
**A.** Result: no binding

**Q.** Does B8 bind [16]?
**A.** Result: binds

**Q.** Does B8 bind [17]?
**A.** Result: no binding

B9: mouse monoclonal antibody OB1 (antibody, mouse IgG1, kappa, V domains shown)
VH: EVKLVESGGGLVKPGGSLKISCAASGFAFSSYDMSWVRQTPEKRLEWVATIISGGTYTYYPDSVKGRFTISRDNARNTLNLQMSSLRAEDTALYYCADDGYIHWGQGTLVTVSA
VL: DIVMTQIPLTLSVTIGQPASISCKSSQSLLYRNGKTYLTWLLQRPGQSPKRLIYLVSKLDPGVPDRFTGSGSGADFTLKISRVEAEDLGIYYCHQGSHFPWTFGGGTKLELKR
**Q.** Does B9 bind [13]?
**A.** Result: binds
